Positions count from the first letter of the chain named.
B1: h1849-H2L1 (antibody, human IgG1, kappa, V domains shown)
VH: EVQLVESGGGVVQPGRSLRLSCAASGFTFSDYNMAWIRQAPGKGLEWVAAIIYDGTRTYYRDSVKGRFTISRDNSKSTLYLQMDSLRAEDTAVYYCATGDSYTNFAYWGQGTLVTVSS
VL: EIVLTQSPTFLSASVGDRVTITCRASSSLSYMHWYQQKPGTSPKLLIYETSKLQSGVPSRFSGSGSGTSFTLTIDSLQPEDFATYYCQQGNSYPRTFGGGTKVEIKR
notes: also called humanized anti-TF antibody
B2: h1849-H3L3 (antibody, human IgG1, kappa, V domains shown)
VH: B1 VH with D84N
VL: B1 VL with F10S, Q54E, S69D
notes: as for B1

What was measured:
[1] = target: T1, antigen protein TF (UniProt P13726 33-251, limits assumed); assay: BLI (Fortebio), antibody on ProA sensor, 1:1 model
T1 construct: Soluble TF used in ELISA coating and BLI; also called TF protein; Tissue Factor
T1 sequence (P13726 33-251 limits assumed): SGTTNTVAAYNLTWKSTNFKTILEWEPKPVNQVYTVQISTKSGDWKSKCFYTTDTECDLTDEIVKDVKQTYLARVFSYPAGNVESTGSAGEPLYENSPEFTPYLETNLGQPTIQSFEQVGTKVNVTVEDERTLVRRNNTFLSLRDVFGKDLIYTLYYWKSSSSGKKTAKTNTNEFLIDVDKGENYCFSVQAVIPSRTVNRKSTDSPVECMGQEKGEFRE

[2] = target: T1, antigen protein TF; assay: ELISA, TF coated at 1 µg/mL, HRP-Protein A detection
[3] = target: T2, Tissue Factor on MDA-MB-231 cells (UniProt P13726 33-295, limits assumed); assay: flow cytometry on MDA-MB-231 cells, Alexa Fluor 488 anti-human IgG
T2 construct: whole, on cells
T2 sequence (P13726 33-295 limits assumed): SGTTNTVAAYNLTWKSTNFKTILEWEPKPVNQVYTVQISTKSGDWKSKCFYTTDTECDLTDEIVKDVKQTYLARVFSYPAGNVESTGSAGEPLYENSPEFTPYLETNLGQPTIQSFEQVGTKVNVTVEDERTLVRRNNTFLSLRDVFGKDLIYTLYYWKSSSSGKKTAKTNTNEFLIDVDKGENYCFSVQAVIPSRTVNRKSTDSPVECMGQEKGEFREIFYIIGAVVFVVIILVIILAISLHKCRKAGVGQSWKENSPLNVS

Row | Binder | Kd [1] | koff [1] | kon [1] | EC50 [2] | EC50 [3]
1 | B1 | 430 pM | 0.000169 s⁻¹ | 392000 M⁻¹ s⁻¹ | 0.0155 µg/mL | 1.13 µg/mL
2 | B2 |  | < 1e-07 s⁻¹ | 324000 M⁻¹ s⁻¹ | 0.0191 µg/mL | 2.3 µg/mL

From patent EP4796557A1 (Unovel (Shanghai) Biopharma Co., Ltd., dated 2025)
